According to the RNAGym collection of RNA variant scans (doi:10.1021/acssynbio.7b00057):

B1: Pistol ribozyme (parent)
chain: GGGUCGUUGUUCCAUAAUCGCGUGGAUAUGGCACGCAAGUUUCUACCGGGCACCGUAAAUGUCCGACUGGAGCCGUUCGGGCGGCUAUAAACAGACCUCAGGCCCGAAGCGUGGCGGCACCUGCCGCCGGUGGUAAAAAAGAUCGGAAGAGCACACGUCU

Variants of: B1
Test: aptazyme ON/OFF ratio, guanine; higher = stronger switching; co-transcriptional cleavage with and without guanine

Point of comparison: GGGUCGGCGCCCCAUAAUCGCGUGGAUAUGGCACGCAAGUUUCUACCGGGCACCGUAAAUGUCCGACUGGAGCCGUUCGGGCGGCUAUAAACAGACCUCAGGCCCGAAGCGUGGCGGCACCUGCCGCCGGUGGUAAAAAAGAUCGGAAGAGCACACGUCU [U7G U8C U10C U11C], “aptazyme ON/OFF ratio” value 1.14. Against it:
- GGGUCGGCGCGACAUAAUCGCGUGGAUAUGGCACGCAAGUUUCUACCGGGCACCGUAAAUGUCCGACUGGAGCCGUUCGGGCGGCUAUAAACAGACCUCAGGCCCGAAGCGUGGCGGCACCUGCCGCCGGUGGUAAAAAAGAUCGGAAGAGCACACGUCU [U7G U8C U10C U11G C12A] — higher, 1.24
- GGGUCGGCGCGGCAUAAUCGCGUGGAUAUGGCACGCAAGUUUCUACCGGGCACCGUAAAUGUCCGACUGGAGCCGUUCGGGCGGCUAUAAACAGACCUCAGGCCCGAAGCGUGGCGGCACCUGCCGCCGGUGGUAAAAAAGAUCGGAAGAGCACACGUCU [U7G U8C U10C U11G C12G] — higher, 1.15
- GGGUCGGCGCACUAUAAUCGCGUGGAUAUGGCACGCAAGUUUCUACCGGGCACCGUAAAUGUCCGACUGGAGCCGUUCGGGCGGCUAUAAACAGACCUCAGGCCCGAAGCGUGGCGGCACCUGCCGCCGGUGGUAAAAAAGAUCGGAAGAGCACACGUCU [U7G U8C U10C U11A C13U] — higher, 1.35
- GGGUCGGCGCACGAUAAUCGCGUGGAUAUGGCACGCAAGUUUCUACCGGGCACCGUAAAUGUCCGACUGGAGCCGUUCGGGCGGCUAUAAACAGACCUCAGGCCCGAAGCGUGGCGGCACCUGCCGCCGGUGGUAAAAAAGAUCGGAAGAGCACACGUCU [U7G U8C U10C U11A C13G] — lower, 1.07
- GGGUCGGCGCACAAUAAUCGCGUGGAUAUGGCACGCAAGUUUCUACCGGGCACCGUAAAUGUCCGACUGGAGCCGUUCGGGCGGCUAUAAACAGACCUCAGGCCCGAAGCGUGGCGGCACCUGCCGCCGGUGGUAAAAAAGAUCGGAAGAGCACACGUCU [U7G U8C U10C U11A C13A] — higher, 1.18
- GGGUCGGCGCAUGAUAAUCGCGUGGAUAUGGCACGCAAGUUUCUACCGGGCACCGUAAAUGUCCGACUGGAGCCGUUCGGGCGGCUAUAAACAGACCUCAGGCCCGAAGCGUGGCGGCACCUGCCGCCGGUGGUAAAAAAGAUCGGAAGAGCACACGUCU [U7G U8C U10C U11A C12U C13G] — lower, 1.08
- GGGUCGGCGCAUAAUAAUCGCGUGGAUAUGGCACGCAAGUUUCUACCGGGCACCGUAAAUGUCCGACUGGAGCCGUUCGGGCGGCUAUAAACAGACCUCAGGCCCGAAGCGUGGCGGCACCUGCCGCCGGUGGUAAAAAAGAUCGGAAGAGCACACGUCU [U7G U8C U10C U11A C12U C13A] — lower, 1.12
- GGGUCGGCGCAUUAUAAUCGCGUGGAUAUGGCACGCAAGUUUCUACCGGGCACCGUAAAUGUCCGACUGGAGCCGUUCGGGCGGCUAUAAACAGACCUCAGGCCCGAAGCGUGGCGGCACCUGCCGCCGGUGGUAAAAAAGAUCGGAAGAGCACACGUCU [U7G U8C U10C U11A C12U C13U] — lower, 1.04
- GGGUCGGCGCAGGAUAAUCGCGUGGAUAUGGCACGCAAGUUUCUACCGGGCACCGUAAAUGUCCGACUGGAGCCGUUCGGGCGGCUAUAAACAGACCUCAGGCCCGAAGCGUGGCGGCACCUGCCGCCGGUGGUAAAAAAGAUCGGAAGAGCACACGUCU [U7G U8C U10C U11A C12G C13G] — higher, 1.21
- GGGUCGGCGCAGAAUAAUCGCGUGGAUAUGGCACGCAAGUUUCUACCGGGCACCGUAAAUGUCCGACUGGAGCCGUUCGGGCGGCUAUAAACAGACCUCAGGCCCGAAGCGUGGCGGCACCUGCCGCCGGUGGUAAAAAAGAUCGGAAGAGCACACGUCU [U7G U8C U10C U11A C12G C13A] — lower, 1.13
- GGGUCGGCGCAGUAUAAUCGCGUGGAUAUGGCACGCAAGUUUCUACCGGGCACCGUAAAUGUCCGACUGGAGCCGUUCGGGCGGCUAUAAACAGACCUCAGGCCCGAAGCGUGGCGGCACCUGCCGCCGGUGGUAAAAAAGAUCGGAAGAGCACACGUCU [U7G U8C U10C U11A C12G C13U] — higher, 1.2
- GGGUCGGCGCGGUAUAAUCGCGUGGAUAUGGCACGCAAGUUUCUACCGGGCACCGUAAAUGUCCGACUGGAGCCGUUCGGGCGGCUAUAAACAGACCUCAGGCCCGAAGCGUGGCGGCACCUGCCGCCGGUGGUAAAAAAGAUCGGAAGAGCACACGUCU [U7G U8C U10C U11G C12G C13U] — lower, 1.07
- GGGUCGGCGCGGGAUAAUCGCGUGGAUAUGGCACGCAAGUUUCUACCGGGCACCGUAAAUGUCCGACUGGAGCCGUUCGGGCGGCUAUAAACAGACCUCAGGCCCGAAGCGUGGCGGCACCUGCCGCCGGUGGUAAAAAAGAUCGGAAGAGCACACGUCU [U7G U8C U10C U11G C12G C13G] — lower, 1.08
- GGGUCGGCGCGGAAUAAUCGCGUGGAUAUGGCACGCAAGUUUCUACCGGGCACCGUAAAUGUCCGACUGGAGCCGUUCGGGCGGCUAUAAACAGACCUCAGGCCCGAAGCGUGGCGGCACCUGCCGCCGGUGGUAAAAAAGAUCGGAAGAGCACACGUCU [U7G U8C U10C U11G C12G C13A] — lower, 1.13
- GGGUCGGCGCCUGAUAAUCGCGUGGAUAUGGCACGCAAGUUUCUACCGGGCACCGUAAAUGUCCGACUGGAGCCGUUCGGGCGGCUAUAAACAGACCUCAGGCCCGAAGCGUGGCGGCACCUGCCGCCGGUGGUAAAAAAGAUCGGAAGAGCACACGUCU [U7G U8C U10C U11C C12U C13G] — lower, 1.12
- GGGUCGGCGCCUUAUAAUCGCGUGGAUAUGGCACGCAAGUUUCUACCGGGCACCGUAAAUGUCCGACUGGAGCCGUUCGGGCGGCUAUAAACAGACCUCAGGCCCGAAGCGUGGCGGCACCUGCCGCCGGUGGUAAAAAAGAUCGGAAGAGCACACGUCU [U7G U8C U10C U11C C12U C13U] — lower, 1.11
- GGGUCGGCGCCUAAUAAUCGCGUGGAUAUGGCACGCAAGUUUCUACCGGGCACCGUAAAUGUCCGACUGGAGCCGUUCGGGCGGCUAUAAACAGACCUCAGGCCCGAAGCGUGGCGGCACCUGCCGCCGGUGGUAAAAAAGAUCGGAAGAGCACACGUCU [U7G U8C U10C U11C C12U C13A] — lower, 1.08
- GGGUCGGCGCCCAAUAAUCGCGUGGAUAUGGCACGCAAGUUUCUACCGGGCACCGUAAAUGUCCGACUGGAGCCGUUCGGGCGGCUAUAAACAGACCUCAGGCCCGAAGCGUGGCGGCACCUGCCGCCGGUGGUAAAAAAGAUCGGAAGAGCACACGUCU [U7G U8C U10C U11C C13A] — lower, 1.04
- GGGUCGGCGCCCGAUAAUCGCGUGGAUAUGGCACGCAAGUUUCUACCGGGCACCGUAAAUGUCCGACUGGAGCCGUUCGGGCGGCUAUAAACAGACCUCAGGCCCGAAGCGUGGCGGCACCUGCCGCCGGUGGUAAAAAAGAUCGGAAGAGCACACGUCU [U7G U8C U10C U11C C13G] — lower, 1.04
- GGGUCGGCGCCCUAUAAUCGCGUGGAUAUGGCACGCAAGUUUCUACCGGGCACCGUAAAUGUCCGACUGGAGCCGUUCGGGCGGCUAUAAACAGACCUCAGGCCCGAAGCGUGGCGGCACCUGCCGCCGGUGGUAAAAAAGAUCGGAAGAGCACACGUCU [U7G U8C U10C U11C C13U] — lower, 1.07
- GGGUCGGCGCGAGAUAAUCGCGUGGAUAUGGCACGCAAGUUUCUACCGGGCACCGUAAAUGUCCGACUGGAGCCGUUCGGGCGGCUAUAAACAGACCUCAGGCCCGAAGCGUGGCGGCACCUGCCGCCGGUGGUAAAAAAGAUCGGAAGAGCACACGUCU [U7G U8C U10C U11G C12A C13G] — higher, 1.22
- GGGUCGGCGCGAAAUAAUCGCGUGGAUAUGGCACGCAAGUUUCUACCGGGCACCGUAAAUGUCCGACUGGAGCCGUUCGGGCGGCUAUAAACAGACCUCAGGCCCGAAGCGUGGCGGCACCUGCCGCCGGUGGUAAAAAAGAUCGGAAGAGCACACGUCU [U7G U8C U10C U11G C12A C13A] — higher, 1.16
- GGGUCGGCGCGAUAUAAUCGCGUGGAUAUGGCACGCAAGUUUCUACCGGGCACCGUAAAUGUCCGACUGGAGCCGUUCGGGCGGCUAUAAACAGACCUCAGGCCCGAAGCGUGGCGGCACCUGCCGCCGGUGGUAAAAAAGAUCGGAAGAGCACACGUCU [U7G U8C U10C U11G C12A C13U] — higher, 1.29
- GGGUCGGCGCCGGAUAAUCGCGUGGAUAUGGCACGCAAGUUUCUACCGGGCACCGUAAAUGUCCGACUGGAGCCGUUCGGGCGGCUAUAAACAGACCUCAGGCCCGAAGCGUGGCGGCACCUGCCGCCGGUGGUAAAAAAGAUCGGAAGAGCACACGUCU [U7G U8C U10C U11C C12G C13G] — lower, 1.06
- GGGUCGGCGCCGAAUAAUCGCGUGGAUAUGGCACGCAAGUUUCUACCGGGCACCGUAAAUGUCCGACUGGAGCCGUUCGGGCGGCUAUAAACAGACCUCAGGCCCGAAGCGUGGCGGCACCUGCCGCCGGUGGUAAAAAAGAUCGGAAGAGCACACGUCU [U7G U8C U10C U11C C12G C13A] — higher, 1.16
- GGGUCGGCGCCGUAUAAUCGCGUGGAUAUGGCACGCAAGUUUCUACCGGGCACCGUAAAUGUCCGACUGGAGCCGUUCGGGCGGCUAUAAACAGACCUCAGGCCCGAAGCGUGGCGGCACCUGCCGCCGGUGGUAAAAAAGAUCGGAAGAGCACACGUCU [U7G U8C U10C U11C C12G C13U] — the same, 1.14
- GGGUCGGCGCGCCAUAAUCGCGUGGAUAUGGCACGCAAGUUUCUACCGGGCACCGUAAAUGUCCGACUGGAGCCGUUCGGGCGGCUAUAAACAGACCUCAGGCCCGAAGCGUGGCGGCACCUGCCGCCGGUGGUAAAAAAGAUCGGAAGAGCACACGUCU [U7G U8C U10C U11G] — higher, 1.27
- GGGUCGGCGCAGCAUAAUCGCGUGGAUAUGGCACGCAAGUUUCUACCGGGCACCGUAAAUGUCCGACUGGAGCCGUUCGGGCGGCUAUAAACAGACCUCAGGCCCGAAGCGUGGCGGCACCUGCCGCCGGUGGUAAAAAAGAUCGGAAGAGCACACGUCU [U7G U8C U10C U11A C12G] — higher, 1.25
- GGGUCGGCGCAUCAUAAUCGCGUGGAUAUGGCACGCAAGUUUCUACCGGGCACCGUAAAUGUCCGACUGGAGCCGUUCGGGCGGCUAUAAACAGACCUCAGGCCCGAAGCGUGGCGGCACCUGCCGCCGGUGGUAAAAAAGAUCGGAAGAGCACACGUCU [U7G U8C U10C U11A C12U] — higher, 1.39
- GGGUCGGCGCCGCAUAAUCGCGUGGAUAUGGCACGCAAGUUUCUACCGGGCACCGUAAAUGUCCGACUGGAGCCGUUCGGGCGGCUAUAAACAGACCUCAGGCCCGAAGCGUGGCGGCACCUGCCGCCGGUGGUAAAAAAGAUCGGAAGAGCACACGUCU [U7G U8C U10C U11C C12G] — higher, 1.27
- GGGUCGGCGCCACAUAAUCGCGUGGAUAUGGCACGCAAGUUUCUACCGGGCACCGUAAAUGUCCGACUGGAGCCGUUCGGGCGGCUAUAAACAGACCUCAGGCCCGAAGCGUGGCGGCACCUGCCGCCGGUGGUAAAAAAGAUCGGAAGAGCACACGUCU [U7G U8C U10C U11C C12A] — higher, 1.29
- GGGUCGGCGCCUCAUAAUCGCGUGGAUAUGGCACGCAAGUUUCUACCGGGCACCGUAAAUGUCCGACUGGAGCCGUUCGGGCGGCUAUAAACAGACCUCAGGCCCGAAGCGUGGCGGCACCUGCCGCCGGUGGUAAAAAAGAUCGGAAGAGCACACGUCU [U7G U8C U10C U11C C12U] — higher, 1.16
- GGGUCGGCGCCAUAUAAUCGCGUGGAUAUGGCACGCAAGUUUCUACCGGGCACCGUAAAUGUCCGACUGGAGCCGUUCGGGCGGCUAUAAACAGACCUCAGGCCCGAAGCGUGGCGGCACCUGCCGCCGGUGGUAAAAAAGAUCGGAAGAGCACACGUCU [U7G U8C U10C U11C C12A C13U] — higher, 1.2
- GGGUCGGCGCCAAAUAAUCGCGUGGAUAUGGCACGCAAGUUUCUACCGGGCACCGUAAAUGUCCGACUGGAGCCGUUCGGGCGGCUAUAAACAGACCUCAGGCCCGAAGCGUGGCGGCACCUGCCGCCGGUGGUAAAAAAGAUCGGAAGAGCACACGUCU [U7G U8C U10C U11C C12A C13A] — higher, 1.27
- GGGUCGGCGCCAGAUAAUCGCGUGGAUAUGGCACGCAAGUUUCUACCGGGCACCGUAAAUGUCCGACUGGAGCCGUUCGGGCGGCUAUAAACAGACCUCAGGCCCGAAGCGUGGCGGCACCUGCCGCCGGUGGUAAAAAAGAUCGGAAGAGCACACGUCU [U7G U8C U10C U11C C12A C13G] — higher, 1.33
